From IntAct's records for PubMed 19017275

B1: Phosphothreonine lyase OspF (Shigella flexneri), Q8VSP9 (parent)
chain: MPIKKPCLKLNLDSLNVVRSEIPQMLSANERLKNNFNILYNQIRQYPAYYFKVASNVPTYSDICQSFSVMYQGFQIVNHSGDVFIHACRENPQSKGDFVGDKFHISIAREQVPLAFQILSGLLFSEDSPIDKWKITDMNRVSQQSRVGIGAQFTLYVKSDQECSQYSALLLHKIRQFIMCLESNLLRSKIAPGEYPASDVRPEDWKYVSYRNELRSDRDGSERQEQMLREEPFYRLMIE
partner: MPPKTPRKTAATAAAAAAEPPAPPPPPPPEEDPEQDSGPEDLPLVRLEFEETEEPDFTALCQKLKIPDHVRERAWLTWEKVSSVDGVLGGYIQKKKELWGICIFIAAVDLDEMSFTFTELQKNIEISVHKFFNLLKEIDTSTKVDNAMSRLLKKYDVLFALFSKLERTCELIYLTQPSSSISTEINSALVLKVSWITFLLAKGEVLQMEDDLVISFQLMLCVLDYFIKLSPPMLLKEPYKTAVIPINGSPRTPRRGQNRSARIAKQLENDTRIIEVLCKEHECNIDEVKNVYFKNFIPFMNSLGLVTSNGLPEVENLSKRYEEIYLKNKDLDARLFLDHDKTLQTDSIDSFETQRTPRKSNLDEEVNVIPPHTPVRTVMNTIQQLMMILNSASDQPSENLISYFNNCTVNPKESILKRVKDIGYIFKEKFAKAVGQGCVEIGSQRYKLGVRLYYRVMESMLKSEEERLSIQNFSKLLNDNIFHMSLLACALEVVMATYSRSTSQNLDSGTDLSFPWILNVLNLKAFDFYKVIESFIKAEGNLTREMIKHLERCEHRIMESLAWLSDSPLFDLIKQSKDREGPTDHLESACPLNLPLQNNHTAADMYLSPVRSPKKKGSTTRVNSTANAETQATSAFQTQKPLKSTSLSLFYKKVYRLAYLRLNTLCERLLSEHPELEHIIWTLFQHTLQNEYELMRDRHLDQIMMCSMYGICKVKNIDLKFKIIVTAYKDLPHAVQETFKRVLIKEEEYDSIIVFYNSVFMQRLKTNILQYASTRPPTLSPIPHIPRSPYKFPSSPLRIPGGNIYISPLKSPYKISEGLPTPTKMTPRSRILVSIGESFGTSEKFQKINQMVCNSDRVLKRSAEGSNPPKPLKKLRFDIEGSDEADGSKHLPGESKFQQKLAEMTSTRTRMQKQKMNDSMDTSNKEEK

Variants of: B1
Conditions: with rb_human RB1, P06400

| Variant | effect of a mutation on the interaction |
| --- | --- |
| I178R;C180G;E182A | decreasing interaction strength |
